In PMC9672922 (Cellular and Molecular Gastroenterology and Hepatology, 2022):

What was measured:
Experiment in all cases: peptide or protein array
[1] = biological target: carbonic anhydrase 1 on the ProtoArray Human Protein Microarray (human, UniProt P00915 1-261)
[2] = biological target: T1, chromosome 7 open reading frame 50 on the ProtoArray Human Protein Microarray (human, UniProt Q9BRJ6 1-194)
T1 sequence (looked up): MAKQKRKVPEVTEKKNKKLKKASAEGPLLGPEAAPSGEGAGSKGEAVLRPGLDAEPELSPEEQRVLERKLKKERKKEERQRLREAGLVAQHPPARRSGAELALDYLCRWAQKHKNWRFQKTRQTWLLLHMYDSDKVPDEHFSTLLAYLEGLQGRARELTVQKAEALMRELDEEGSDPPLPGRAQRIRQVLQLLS

[3] = biological target: mitogen-activated protein kinase kinase 2 (MEK2) on the ProtoArray Human Protein Microarray (human, UniProt P36507 1-400)
[4] = biological target: casein kinase 1ε (CK1ε) on the ProtoArray Human Protein Microarray (human, UniProt P49674 1-416)
[5] = biological target: glycogen synthase kinase 3β (GSK3β) on the ProtoArray Human Protein Microarray (human, UniProt P49841 1-420)

Measured: binding result

carbonic anhydrase 1 on the ProtoArray Human Protein Microarray, sequence (P00915 whole entry): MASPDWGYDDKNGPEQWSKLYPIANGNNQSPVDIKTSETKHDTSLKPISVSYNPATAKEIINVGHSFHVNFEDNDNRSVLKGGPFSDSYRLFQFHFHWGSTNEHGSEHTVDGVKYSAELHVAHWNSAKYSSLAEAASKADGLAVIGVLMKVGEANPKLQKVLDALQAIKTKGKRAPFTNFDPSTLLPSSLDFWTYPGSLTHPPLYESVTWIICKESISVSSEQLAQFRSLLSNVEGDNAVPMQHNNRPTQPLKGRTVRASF
casein kinase 1ε (CK1ε) on the ProtoArray Human Protein Microarray, sequence (P49674 whole entry): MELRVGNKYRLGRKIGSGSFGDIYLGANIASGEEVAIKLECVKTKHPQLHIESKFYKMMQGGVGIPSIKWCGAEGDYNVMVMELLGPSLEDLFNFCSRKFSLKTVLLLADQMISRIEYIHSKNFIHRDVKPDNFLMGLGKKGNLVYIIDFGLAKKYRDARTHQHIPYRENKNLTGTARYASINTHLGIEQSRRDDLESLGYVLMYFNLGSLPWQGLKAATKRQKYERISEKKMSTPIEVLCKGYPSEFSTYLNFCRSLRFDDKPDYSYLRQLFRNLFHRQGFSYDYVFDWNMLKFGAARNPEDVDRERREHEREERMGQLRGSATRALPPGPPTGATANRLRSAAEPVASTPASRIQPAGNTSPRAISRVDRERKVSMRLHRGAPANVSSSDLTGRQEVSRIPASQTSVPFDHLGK
glycogen synthase kinase 3β (GSK3β) on the ProtoArray Human Protein Microarray, sequence (P49841 whole entry): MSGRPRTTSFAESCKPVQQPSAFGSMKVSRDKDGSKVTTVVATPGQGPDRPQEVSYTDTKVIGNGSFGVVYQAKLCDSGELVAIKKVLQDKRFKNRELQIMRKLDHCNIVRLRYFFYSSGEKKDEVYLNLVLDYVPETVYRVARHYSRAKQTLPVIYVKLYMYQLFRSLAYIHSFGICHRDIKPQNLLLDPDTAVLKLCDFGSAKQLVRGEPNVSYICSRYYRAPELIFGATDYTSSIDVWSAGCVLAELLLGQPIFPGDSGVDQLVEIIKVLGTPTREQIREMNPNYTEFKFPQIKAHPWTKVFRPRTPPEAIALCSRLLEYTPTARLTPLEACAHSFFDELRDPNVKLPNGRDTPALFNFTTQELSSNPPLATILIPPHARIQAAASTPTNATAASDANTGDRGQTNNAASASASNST

B1: V5-SRGY (RBMY amino acid residues 227–374, 4 repeated SRGY box domains) (domain or fragment, human, UniProt P0DJD3-1 227-374, looked up)
chain: ETRDYAPPSRGYAYRDNGHSNRDEHSSRGYRNHRSSRETRDYAPPSRGHAYRDYGHSRRDESYSRGYRNRRSSRETREYAPPSRGHGYRDYGHSRRHESYSRGYRNHPSSRETRDYAPPHRDYAYRDYGHSSWDEHSSRGYSYHDGYG
binds: [1] | [2] | [3] | [4] | [5]
